Square brackets hold non-standard residues; d marks the D form. Ends that are not written are not given here. AEEA = NCCOCCOCC(=O)O
T1: human CD177 (human, UniProt Q8N6Q3 22-408)
T1 construct: whole, on cells; On circulating human neutrophils of donors and patients; also called CD177 (on human neutrophils)
T1 sequence (looked up): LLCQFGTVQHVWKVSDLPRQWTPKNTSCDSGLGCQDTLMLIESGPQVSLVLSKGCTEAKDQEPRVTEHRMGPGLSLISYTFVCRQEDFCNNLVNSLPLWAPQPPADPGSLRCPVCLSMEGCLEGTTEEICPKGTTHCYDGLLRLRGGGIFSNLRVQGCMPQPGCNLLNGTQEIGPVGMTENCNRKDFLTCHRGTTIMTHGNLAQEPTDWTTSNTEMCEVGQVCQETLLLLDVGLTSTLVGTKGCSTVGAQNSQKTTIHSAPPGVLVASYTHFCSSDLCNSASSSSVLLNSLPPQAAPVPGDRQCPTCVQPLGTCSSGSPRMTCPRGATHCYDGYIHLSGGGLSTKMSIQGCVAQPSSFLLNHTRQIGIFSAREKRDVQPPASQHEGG

T2: murine CD177 (mouse, UniProt Q8R2S8 22-817)
T2 construct: whole, on cells; On murine neutrophils (HDN, TAN, circulating), on HEK293T cells ectopically expressing it, and from neutrophil lysate in the pull-down; also called mouse CD177; CD177 (on murine neutrophils)
T2 sequence (looked up): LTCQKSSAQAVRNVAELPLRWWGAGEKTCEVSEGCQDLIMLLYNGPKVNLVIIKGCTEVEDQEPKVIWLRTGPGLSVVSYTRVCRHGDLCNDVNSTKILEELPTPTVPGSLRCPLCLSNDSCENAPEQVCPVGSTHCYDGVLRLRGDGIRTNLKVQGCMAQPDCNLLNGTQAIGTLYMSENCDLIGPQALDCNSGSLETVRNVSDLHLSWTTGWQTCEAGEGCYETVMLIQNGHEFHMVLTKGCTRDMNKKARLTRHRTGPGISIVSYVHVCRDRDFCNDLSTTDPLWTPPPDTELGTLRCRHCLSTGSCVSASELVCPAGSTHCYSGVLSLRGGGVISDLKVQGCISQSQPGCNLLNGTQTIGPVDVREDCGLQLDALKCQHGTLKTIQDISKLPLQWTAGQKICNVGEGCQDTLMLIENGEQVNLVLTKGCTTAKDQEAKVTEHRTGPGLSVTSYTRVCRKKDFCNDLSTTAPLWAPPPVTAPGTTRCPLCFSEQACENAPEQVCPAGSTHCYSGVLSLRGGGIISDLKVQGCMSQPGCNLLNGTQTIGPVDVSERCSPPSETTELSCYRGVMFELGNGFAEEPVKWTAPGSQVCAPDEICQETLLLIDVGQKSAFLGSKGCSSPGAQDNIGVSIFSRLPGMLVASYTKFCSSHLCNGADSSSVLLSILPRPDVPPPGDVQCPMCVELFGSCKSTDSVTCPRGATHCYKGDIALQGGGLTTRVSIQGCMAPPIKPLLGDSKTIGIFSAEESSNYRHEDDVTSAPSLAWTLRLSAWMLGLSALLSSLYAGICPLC

B1: phage presenting peptide SEL (other)
chain: SELRSTPLLVPS
notes: not shown: phage coat protein pVIII flanking the inserted peptide
B2: phage presenting peptide SLE (other)
chain: SLESSPMAQLPQ
notes: as for B1
B3: phage presenting peptide PEL (other)
chain: PELDSKPYFPPL
notes: as for B1
B4: phage presenting peptide 4 (PSS) (other)
chain: PSSNLESTPLSLL
notes: as for B1
B5: LQI tetramer peptide, (LQIQSWSSSP-Doa-Doa-C)4-(Mpa)4-Lys2-Lys-beta-Ala-Lys(Biotin)-beta-Ala-OH (peptide)
peptide: LQIQSWSSSP[AEEA][AEEA]C
modifications: also: tetramer: four chains joined via Cys-Mpa to branched Lys core
notes: Branched tetramer, MW 7.6 kDa; Detected with SA-Cy3 after washing ('tetramer alone' assay); also called tetrameric LQI; biotinylated LQI-tetramer
B6: phage presenting peptide 27 (LAT) (other)
chain: LATTHMVFSPDH
notes: as for B1
B7: phage presenting peptide ELV (other)
chain: ELVTASMPRPNN
notes: as for B1
B8: phage presenting peptide 1.1 (KFP) (other)
chain: KFPDLDSRRLPHMSL
notes: detected with PE-conjugated anti-M13 antibody; not shown: phage coat protein pVIII flanking the inserted peptide

Tests used:
[1] = target: T1, human CD177; assay: flow cytometry on WBCs of healthy volunteers, anti-M13-PE (FIG. 13I)
Procedure: In order to assess the binding efficiency of each peptide to human circulating neutrophils, and the level of variability between individuals, the individual binding of each peptide to 5-8 healthy volunteers was assessed. Blood withdrawn from healthy volunteers was overlaid on 3% dextran in 0.9% NaCl in a 1:1 ratio and left at RT for 25 min to allow erythrocyte sedimentation. Residual RBCs were lysed by adding water for 30 sec and stopped by adding PBS×5 supplemented with 2.5% BSA. Following red blood cell lysis, 0.5×10⁶ WBCs were incubated with each phage separately. The level of binding of the different phages to the neutrophils was then assessed by flow cytometry. Neutrophils were identified based on a CD66b⁺ SSC^high gating, and the level of phage binding was assessed using PE-conjugated anti-M13 antibody for specific phage staining.

[2] = target: T1, human CD177; assay: negative control on WBCs of a lung cancer patient, flow cytometry
[3] = target: T2, murine CD177; assay: titration on purified murine HDNs, flow cytometry; target named as neutrophils
[4] = target: T2, murine CD177; assay: pull-down from murine neutrophil lysate with biotinylated LQI-tetramer on streptavidin-agarose beads, mass spectrometry
Procedure: After washing, the bound proteins were eluted by incubating the beads for 10 min at 95° C. in protein sample buffer containing beta-mercaptoethanol. The gel was stained using silver staining. Lanes of the eluates of peptide- and control-beads were cut out and analyzed by mass spectrometry.

[5] = target: T2, murine CD177; assay: flow cytometry on WBC of 4T1 tumor bearing mice, anti-M13-PE; target named as neutrophils

Binder | percent of circulating neutrophils bound, average of donors [1] [%] | other results
B1 | ~60 | –
B2 | ~60 | –
B3 | ~60 | –
B4 | ~60 | –
B5 | – | binding result [2]: no binding; Kd [3]: 3.3 µM; peptide/control ratio [4]: 7.89
SSLMTTQLIATSI (peptide, not shown: large carriers) [phage presenting peptide 14 (SSL)] | 60 | –
B6 | ~60 | –
B7 | ~60 | –
LQIQSWSSSP (peptide, part only; not given: phage coat protein VIII, part only) [phage presenting the … (SEQ ID NO: 9) peptide on coat protein VIII] | – | percent of neutrophils bound [5]: 95%
B8 | ~60 | –
